{"source": "patent US9513240B2", "about": "“MEMS-based calorimeter, fabrication, and use thereof” (The Trustees of Columbia University in the City of New York, priority 2011, dated 2016)", "key": {"[1]": {"test": "MEMS AC-DSC measurement of lysozyme unfolding", "format": "physicochemical", "text": "The DSC measurement system was configured similarly to that of Example 2. The microdevice was also placed in a thermal enclosure built in-house. The temperature of the sample stage in the thermal enclosure was controlled in closed-loop via a proportional-integral-derivative (PID) algorithm implemented by a commercial temperature controller (Lakeshore 331). The on-chip microheaters driven by a DC power supply (Agilent E3631A) were used to generate a constant differential power input, while for modulated heating, a square-wave AC voltage generated by a waveform generator (Agilent 33220A) was applied (FIG. 13). […] During device calibration, the thermopile output voltage was measured by a nanovoltmeter (Agilent 34420A), while during AC-DSC measurement, the amplitude and phase of thermopile voltage were measured by a lock-in amplifier (Stanford Research Systems SR830) referenced by the same AC modulation square wave from the waveform generator. […]\nThe methods for calibrating the DC performance of the MEMS device were substantially the same as described in Example 2. The baseline in device output, i.e., the thermopile voltage with no differential power input during temperature scanning, was measured with both chambers filled with buffer solutions. […]"}, "[2]": {"details": "typical range; cited from earlier work"}, "[3]": {"test": "MEMS DSC measurement of lysozyme unfolding", "format": "physicochemical", "details": "lysozyme 1 to 20 mg/mL in 0.1 M Glycine-HCl buffer (pH 2.5); scan 25-75° C. at 5° C./min", "description": "DSC measurements of biomolecules were performed using the calibrated microdevice, whose sample chamber and reference chamber were respectively filled with biological sample and buffer solutions, scanned in a range of temperature of interest. The temperature sensors were used to monitor the temperatures of calorimetric chambers while the device output was obtained in real time to compute the biomolecular thermal power. Before DSC measurements, the baseline in device output, i.e., the thermopile output voltage in the absence of a differential power input, during temperature scanning was measured with both calorimetric chambers filled with buffer solutions. Biological sample and buffer solutions were degassed with a vacuum chamber built in-house, metered with micropipettes, and introduced by a syringe pump (New Era Pump Systems, NE 1000).\nThe calibrated MEMS DSC device was employed to characterize protein unfolding, a common type of biomolecular conformational transition.\nThe thermopile output voltage as a function of temperature, corrected by baseline subtraction, was measured at varying protein concentrations ranging from 1 to 20 mg/mL (FIG. 10). […]"}}}
{"substance": "lysozyme", "values": [{"measurement": "apparent melting temperature (Tm)", "setting": "[1]; 10 and 20 mg/mL in 0.1 M Glycine-HCl buffer, pH 2.5, 25 to 82° C. at 5° C./min, modulation 1, 5 or 10 Hz", "result": "55-58 °C"}, {"measurement": "difference in the specific heat capacity (Δc) between native and unfolded states", "setting": "[1]; regardless of the modulation frequency", "result": 3.0, "unit": "kJ/mol·K"}, {"measurement": "Tm, published data", "setting": "[2]", "result": "55-58.9 °C"}, {"measurement": "ΔH of unfolding, published data", "setting": "[2]", "result": "90.1 to 105", "unit": "kcal/mol"}, {"measurement": "melting temperature Tm", "setting": "[3]", "result": "approximately 55 °C"}, {"measurement": "total change of molar enthalpy (ΔH) of unfolding", "setting": "[3]", "result": "approximately 450 kJ/mol"}]}
